Laboratory results from US20230391876A1 (HANALL BIOPHARMA, published 2023).

Assays:
[1] = target: T1, hFcRn on hFcRn-expressing HEK293 cells (human, UniProt P55899 24-365; P61769 21-119); test: FACS on hFcRn HEK293 cells, 10 nM antibody, pH 6.0
T1 construct: whole, on cells; also called hFcRn HEK293
Protocol: (§1) The analysis of hFcRn binding using FACS was carried out under two conditions of pH 6.0 and pH 7.4. hFcRn-expressing 1TEK293 (hFcRn HEK293) cells were diluted with the reaction buffer (0.0500 BSA in PBS, pH 6.0 or pH 7.4) and prepared in duplicate in a 96 well plate at 1×10⁵ cells for each sample. In addition, each antibody sample was diluted with the reaction buffer to 10 nM, and then put into a 96 well plate, and incubated at 4° C. for 90 minutes. Thereafter, the plate was centrifuged to remove the supernatant, and then Alexa488-goat anti-hIgG Ab (1:200) was added thereto, and again incubated at 4° C. for 90 minutes. After the reaction was completed, it was centrifuged to remove the supernatant, and 200 μL of the reaction buffer was added to resuspend the cell pellet, and then the MFI value was measured in a FACS instrument.

[2] = target: T1, hFcRn on hFcRn-expressing HEK293 cells; test: FACS on hFcRn HEK293 cells, 10 nM antibody, pH 7.4, high concentration sample
Protocol: as §1

[3] = target: T2, shFcRn (soluble human FcRn) (human, UniProt P55899 24-297; P61769 21-119); test: SPR, shFcRn immobilized on chip, antibody as analyte, pH 7.4;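 note: kinetics fitted with a 1:1 Langmuir model, association 200 s and dissociation 600 s in PBST, double-referenced against buffer-only and interspot signals, values averaged over repeated runs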
T2 construct: extracellular domain; Printed only as 'soluble human FcRn'; also called hFcRn (immobilized on a chip)
Protocol: (§2) Kinetic analysis was performed using a 1:1 Langmuir binding model, and the average KD value was obtained by repeating the analysis 6 times in each condition of pH 6.0 and pH 7.4.
(§3) Chip activation was performed under EDAC/NHS 0.5×, 30 μL/min, and 300 sec conditions. Thereafter, shFcRn was prepared at 2 μg/mL, 250 μL using an acetate buffer (pH 5.5), and immobilization was performed while flowing at 30 μL/min. The reaction was stopped when the immobilization level corresponded to 200 RU to 300 RU. Thereafter, deactivation was performed using ethanolamine at 30 μL/min, 300 sec. […] Sample dilution was performed using 1×PBST (pH 7.4) or 1×PBST (pH 6.0) buffer depending on the analysis pH. In the sample analysis conditions, association was carried out by reaction at 50 μL/min, 200 sec, and dissociation was carried out by reaction at 50 μL/min, 600 sec. Thereafter, reaction was carried out using a glycine buffer (pH 2.0) at 100 μL/min, 18 sec to perform regeneration. For kinetic analysis, samples were prepared and reacted once in three cells to which shFcRn was immobilized. Then three kinetic values were obtained, and then an average KD value was measured. When analyzing reaction signals, interspot-referencing and signals in which only buffer was analyzed were used for a double-referencing.

[4] = target: T2, shFcRn (soluble human FcRn); test: SPR, shFcRn immobilized on chip, antibody as analyte, pH 6.0;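 note: kinetics fitted with a 1:1 Langmuir model, association 200 s and dissociation 600 s, samples diluted in PBST, double-referenced signals, values averaged across three shFcRn-coated cells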
Protocol: as §2, §3

[5] = target: T1, hFcRn on hFcRn-expressing HEK293 cells; test: FACS on hFcRn HEK293 cells, pH 6.0, high concentration sample; head prints 'FACS binding (EC50, nM)', taken as blocking of competitor Alexa488-hIgG1 (Example 5.5)
Protocol: (§4) 1×10⁷ hFcRn HEK293 cells were seeded into a T75 flask and cultured for 24 hours. After culturing, the cells were removed and placed in a 96 well plate at 1×10⁵ cells for each sample in duplicate. […] After the reaction was completed, it was centrifuged to remove the supernatant. 200 μL of the reaction buffer was added to resuspend the cell pellet, and then the MFI value was measured in a FACS instrument.
The evaluation of hFcRn blocking was performed at 0.1 nM, 1 nM, 10 nM, and 100 nM using FACS.

[6] = target: T1, hFcRn on hFcRn-expressing HEK293 cells; test: FACS on hFcRn HEK293 cells, 10 nM antibody, pH 7.4
Protocol: as §1

[7] = target: T1, hFcRn on hFcRn-expressing HEK293 cells; test: FACS on hFcRn HEK293 cells, pH 6.0; head prints 'FACS binding (EC50, nM)', taken as blocking of competitor Alexa488-hIgG1 (Example 4.5)
Protocol: as §4

[8] = target: T1, hFcRn on hFcRn-expressing HEK293 cells; test: FACS on hFcRn HEK293 cells, 10 nM antibody, pH 6.0, high concentration sample
Protocol: as §1

[9] = target: T2, shFcRn (soluble human FcRn); test: SPR, hFcRn immobilized on chip, pH 7.4
Protocol: as §2, §3

[10] = target: T2, shFcRn (soluble human FcRn); test: SPR, hFcRn immobilized on chip, pH 6.0
Protocol: as §2, §3

| MFI [1] [MFI] | MFI [2] [MFI] | Kd [3] [nM] | Kd [4] [nM] | EC50 [5] [nM] | MFI [6] [MFI] | EC50 [7] [nM] | MFI [8] [MFI] | Kd [9] [nM] | koff [3] [s⁻¹] | kon [3] [M⁻¹ s⁻¹] | koff [4] [s⁻¹] | kon [4] [M⁻¹ s⁻¹] | Kd [10] [nM] | Binder |
| --- | --- | --- | --- | --- | --- | --- | --- | --- | --- | --- | --- | --- | --- | --- |
| 2500 | 7000 | 0.207 | 0.149 | 0.54 | 6200 | 1.27 | 3410 | 0.2 | 0.000435 | 2.1e+06 | 0.000433 | 2.91e+06 | 0.1 | HL161AN variant No. 2 (LC:N25S, HC:C32Y) (antibody, V domains shown, also called HL161ANSY; copies: 2 + 2) VL: SYVLTQPPSVSVAPGQTARITCGGSNIGSTSVHWYQQKPGQAPVLVVHDDSDRPSGIPERFSGSNSGNTATLTISRVEAGDEADYYCQVRDSSSDHVIFGGGTKLTVLGQPKAAPSVTL VH: not shown |
| 2390 | 7080 | 0.381 | 0.264 | 0.71 | 5860 | 1.3 | 3020 | 0.3 | 0.000647 | 1.7e+06 | 0.000522 | 1.98e+06 | 0.21 | HL161AN variant No. 22 (LC:N25Q, HC:C32Y Q82E) (antibody, V domains shown, also called HL161ANQYE; copies: 2 + 2) VL: SYVLTQPPSVSVAPGQTARITCGGQNIGSTSVHWYQQKPGQAPVLVVHDDSDRPSGIPERFSGSNSGNTATLTISRVEAGDEADYYCQVRDSSSDHVIFGGGTKLTVLGQPKAAPSVTL VH: not shown |
| 2830 | 7060 | 0.218 | 0.158 | 0.6 | 6760 | 1.47 | 3130 | 0.28 | 0.000496 | 2.27e+06 | 0.000477 | 3.02e+06 | 0.14 | HL161AN variant No. 8 (LC:N25S, HC:C32S Q82E) (antibody, V domains shown, also called HL161ANSE; copies: 2 + 2) VL: SYVLTQPPSVSVAPGQTARITCGGSNIGSTSVHWYQQKPGQAPVLVVHDDSDRPSGIPERFSGSNSGNTATLTISRVEAGDEADYYCQVRDSSSDHVIFGGGTKLTVLGQPKAAPSVTL VH: not shown |
| 2430 |  | 0.209 | 0.206 |  | 6030 | 1.11 |  | 0.3 | 0.000499 | 2.39e+06 | 0.000552 | 2.67e+06 | 0.18 | HL161AN variant No. 21 (LC:N25Q, HC:C32Y Q82T) (antibody, human IgG1, V domains shown, Variable domains only) VL: SYVLTQPPSVSVAPGQTARITCGGQNIGSTSVHWYQQKPGQAPVLVVHDDSDRPSGIPERFSGSNSGNTATLTISRVEAGDEADYYCQVRDSSSDHVIFGGGTKLTVLGQPKAAPSVTL VH: EVQLLESGGGLVQPGGSLRLSCAASEFTFGSYVMTWVRQAPGKGLEWVSVISGSGGSTYYADSVKGRFTISRDNSKNTLYLTMNSLRAEDTAVYYCAKTPWWLRSPFFDYWGQGTLVTVSS |

Second part, the binder before the results:

| Binder | MFI [1] [MFI] | MFI [2] [MFI] | Kd [3] [nM] | Kd [4] [nM] | EC50 [5] [nM] | MFI [6] [MFI] | EC50 [7] [nM] | MFI [8] [MFI] | Kd [9] [nM] | koff [3] [s⁻¹] | kon [3] [M⁻¹ s⁻¹] | koff [4] [s⁻¹] | kon [4] [M⁻¹ s⁻¹] | Kd [10] [nM] |
| --- | --- | --- | --- | --- | --- | --- | --- | --- | --- | --- | --- | --- | --- | --- |
| HL161AN (antibody, human IgG1, V domains shown, also called HL161AN RS) VL: SYVLTQPPSVSVAPGQTARITCGGNNIGSTSVHWYQQKPGQAPVLVVHDDSDRPSGIPERFSGSNSGNTATLTISRVEAGDEADYYCQVRDSSSDHVIFGGGTKLTVLGQPKAAPSVTL VH: EVQLLESGGGLVQPGGSLRLSCAASEFTFGSCVMTWVRQAPGKGLEWVSVISGSGGSTYYADSVKGRFTISRDNSKNTLYLQMNSLRAEDTAVYYCAKTPWWLRSPFFDYWGQGTLVTVSS | 2720 | 7160 | 0.294 | 0.116 | 0.91 | 6150 | 1.83 | 2950 | 0.27 |  |  |  |  |  |
| HL161AN variant No. 11 (LC:N25S, HC:C32Y Q82E) (antibody, V domains shown, also called HL161ANSYE; copies: 2 + 2) VL: SYVLTQPPSVSVAPGQTARITCGGSNIGSTSVHWYQQKPGQAPVLVVHDDSDRPSGIPERFSGSNSGNTATLTISRVEAGDEADYYCQVRDSSSDHVIFGGGTKLTVLGQPKAAPSVTL VH: not shown | 2580 | 6570 | 0.262 | 0.19 | 0.62 | 6320 | 1.36 | 3450 | 0.28 | 0.000487 | 1.86e+06 | 0.000486 | 2.56e+06 | 0.14 |
| HL161AN variant No. 19 (LC:N25Q, HC:C32S Q82E) (antibody, V domains shown, also called HL161ANQE; copies: 2 + 2) VL: SYVLTQPPSVSVAPGQTARITCGGQNIGSTSVHWYQQKPGQAPVLVVHDDSDRPSGIPERFSGSNSGNTATLTISRVEAGDEADYYCQVRDSSSDHVIFGGGTKLTVLGQPKAAPSVTL VH: not shown | 2640 | 7910 |  | 0.275 | 0.62 | 6470 | 1.14 | 3240 | 0.36 |  |  | 0.000575 | 2.09e+06 | 0.32 |
| HL161AN variant No. 1 (LC:N25S, HC:C32S) (antibody, V domains shown, also called HL161ANS; #1 (HL161ANS)) VL: SYVLTQPPSVSVAPGQTARITCGGSNIGSTSVHWYQQKPGQAPVLVVHDDSDRPSGIPERFSGSNSGNTATLTISRVEAGDEADYYCQVRDSSSDHVIFGGGTKLTVLGQPKAAPSVTL VH: EVQLLESGGGLVQPGGSLRLSCAASEFTFGSSVMTWVRQAPGKGLEWVSVISGSGGSTYYADSVKGRFTISRDNSKNTLYLQMNSLRAEDTAVYYCAKTPWWLRSPFFDYWGQGTLVTVSS | 2720 | 6730 | 0.122 | 0.129 | 0.69 | 6460 | 1.44 | 3270 | 0.12 | 0.000392 | 3.22e+06 | 0.000463 | 3.58e+06 | 0.12 |
| HL161AN variant No. 12 (LC:N25Q, HC:C32S) (antibody, V domains shown, also called HL161ANQ; #12 (HL161ANQ)) VL: SYVLTQPPSVSVAPGQTARITCGGQNIGSTSVHWYQQKPGQAPVLVVHDDSDRPSGIPERFSGSNSGNTATLTISRVEAGDEADYYCQVRDSSSDHVIFGGGTKLTVLGQPKAAPSVTL VH: EVQLLESGGGLVQPGGSLRLSCAASEFTFGSSVMTWVRQAPGKGLEWVSVISGSGGSTYYADSVKGRFTISRDNSKNTLYLQMNSLRAEDTAVYYCAKTPWWLRSPFFDYWGQGTLVTVSS | 2770 | 7700 | 0.209 | 0.181 | 0.69 | 6940 | 1.65 | 3390 | 0.21 | 0.000499 | 2.38e+06 | 0.000549 | 3.02e+06 | 0.18 |
| HL161AN variant No. 13 (LC:N25Q, HC:C32Y) (antibody, V domains shown, also called HL161ANQY; copies: 2 + 2) VL: SYVLTQPPSVSVAPGQTARITCGGQNIGSTSVHWYQQKPGQAPVLVVHDDSDRPSGIPERFSGSNSGNTATLTISRVEAGDEADYYCQVRDSSSDHVIFGGGTKLTVLGQPKAAPSVTL VH: not shown | 2600 | 7940 | 0.236 | 0.2 | 0.66 | 6730 | 1.38 | 3330 | 0.32 | 0.000444 | 1.88e+06 | 0.000556 | 2.77e+06 | 0.21 |
